Values joined by “and” are separate entries in the source; they are usually repeats but may differ in a detail not shown here. Equal entries are not always repeated. Where two headings read alike, the source gives them in different places.
Key:
Human OSM [1] = target: T1, Human OSM (human, UniProt P13725 26-221); assay: BIAcore, purified antibody
T1 construct: Recombinant human OSM; also called hOSM; human Oncostatin M
T1 sequence: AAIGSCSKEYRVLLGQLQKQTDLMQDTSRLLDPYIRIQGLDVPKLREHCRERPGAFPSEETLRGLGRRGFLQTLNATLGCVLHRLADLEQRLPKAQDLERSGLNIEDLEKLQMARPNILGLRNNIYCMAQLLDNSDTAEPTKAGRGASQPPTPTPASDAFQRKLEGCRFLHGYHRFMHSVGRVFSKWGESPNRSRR

Human OSM [2] = target: T1, Human OSM; assay: cell-based or functional assay
Cynomolgus OSM [3] = target: T2, Cynomolgus OSM (cynomolgus, UniProt A0A2K5VPC6 26-221); assay: cell-based or functional assay
T2 sequence: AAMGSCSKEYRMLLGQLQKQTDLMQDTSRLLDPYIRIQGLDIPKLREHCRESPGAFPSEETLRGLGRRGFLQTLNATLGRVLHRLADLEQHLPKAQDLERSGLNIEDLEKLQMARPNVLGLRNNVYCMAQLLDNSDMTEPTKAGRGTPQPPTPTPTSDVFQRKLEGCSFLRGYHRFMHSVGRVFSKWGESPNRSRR

Human OSM [4] = target: T1, Human OSM; assay: cell-based or functional assay; remark: listed apart in the source
Cynomolgus OSM [5] = target: T2, Cynomolgus OSM; assay: cell-based or functional assay; remark: listed apart in the source
Marmoset OSM [6] = target: Marmoset OSM (marmoset); assay: cell-based or functional assay
Human OSM [7] = target: T1, Human OSM; assay: Kinexa solution phase affinity
Procedure: (§1) Kinexa (Sapidyne Instruments 3200) solution phase affinity was used to determine the overall affinity of anti-OSM antibody H0(huCDRH1)L1 and Humanised 15E10 (an unrelated OSM antibody) to human, cynomolgus macaque, rhesus macaque and marmoset OSM (Table 15). Humanised 15E10 was added for comparison purposes.
(§2) OSM beads were prepared either by adsorption (polymethylmethacrylate beads-PMMA) or amine coupling (NHS-activated sepharose beads). The range of OSM molecules studied necessitated the generation of beads coated with different concentrations of OSM. For the solution phase portion of the assay, a fixed concentration of antibody was incubated with a broad range of OSM concentrations and allowed to reach equilibrium by incubation at r.t. for at least 2 h before analysis proceeded. The OSM beads were then used to determine the amount of free antibody present in the solution phase samples, by means of the free antibody binding to the OSM bead matrix then detected using an appropriate secondary antibody (either anti-human or anti-mouse depending on the construct being tested) labelled with a fluorescent dye. The binding curves where fitted using the Kinexa Pro analysis software inherent to the machine. Multiple runs using varying starting concentrations of antibody were then compiled and analysed using the n-curve analysis software to give a more accurate determination of affinity.

Cynomolgus OSM [8] = target: T2, Cynomolgus OSM; assay: Kinexa solution phase affinity
Procedure: as §1, §2

Marmoset OSM [9] = target: T3, Marmoset OSM (marmoset); assay: Kinexa solution phase affinity
T3 construct: also called Marm OSM
Procedure: as §1, §2

Rhesus OSM = target: T4, Rhesus OSM (rhesus macaque, UniProt F7GF43 26-221); assay: Kinexa solution phase affinity
T4 construct: also called rhesus macaque OSM
T4 sequence: T2 sequence
Procedure: as §1, §2

Human OSM [10] = target: T1, Human OSM; assay: cell-based or functional assay; remark: listed apart in the source
Human OSM [11] = target: T1, Human OSM; assay: cell-based or functional assay; remark: listed apart in the source
Human OSM [12] = target: T1, Human OSM; assay: cell-based or functional assay; remark: listed apart in the source
Human OSM [13] = target: T1, Human OSM; assay: cell-based or functional assay; remark: listed apart in the source
Human OSM [14] = target: T1, Human OSM; assay: cell-based or functional assay; remark: listed apart in the source
Human OSM [15] = target: T1, Human OSM; assay: cell-based or functional assay; remark: listed apart in the source
Human OSM [16] = target: T1, Human OSM; assay: cell-based or functional assay; remark: listed apart in the source
Human OSM [17] = target: T1, Human OSM; assay: cell-based or functional assay; remark: listed apart in the source
Human OSM [18] = target: T1, Human OSM; assay: BIAcore kinetics, purified antibody
Cynomolgus OSM [19] = target: T2, Cynomolgus OSM; assay: BIAcore kinetics, purified antibody
Human OSM [20] = target: T1, Human OSM; assay: BIAcore kinetics, transfection supernatant
Cynomolgus OSM [21] = target: T2, Cynomolgus OSM; assay: BIAcore kinetics, transfection supernatant
[22] = target: T5, Endogenous human OSM (neutrophil-derived) (human, UniProt P13725 26-221, limits assumed); assay: gp130 ELISA with endogenous neutrophil-derived human OSM
T5 construct: Native OSM generated from GM-CSF stimulation of healthy human neutrophils; also called native OSM; endogenous OSM
T5 sequence: T1 sequence

[23] = target: T5, Endogenous human OSM …; assay: as above; remark: listed apart in the source

- fold increased affinity compared with 15E10h (Human OSM [1]): 6.5 fold
- KB cell neutralisation assay, mean IC50 (Human OSM [2]): 0.008 µg/ml and 53 pM
- KB cell neutralisation assay, mean IC50 (Cynomolgus OSM [3]): 0.007 µg/ml and 47 pM
- KB cell neutralisation assay, mean IC50 (Human OSM [4]): 0.003 µg/ml and 20 pM
- KB cell neutralisation assay, mean IC50 (Cynomolgus OSM [5]): 0.0041 µg/ml and 27 pM
- KB cell neutralisation assay, mean IC50 (Marmoset OSM [6]): 0.0036 µg/ml and 24 pM
- Kd (Human OSM [7]): 0.038 nM
- Kd (Cynomolgus OSM [8]): 0.053 nM
- Kd (Marmoset OSM [9]): 0.021 nM
- Kd (Rhesus OSM): 0.122 nM
- IC50 (read off the curve); IL-6 release from HFLS-RA cells stimulated with 0.3 ng/ml human OSM (Human OSM [10]): ~0.006 nM
- IC50 (read off the curve); IL-6 release from HFLS-RA cells stimulated with 3 ng/ml human OSM (Human OSM [11]): ~0.1 nM
- IC50 (read off the curve); MCP-1 release from HFLS-RA cells stimulated with 0.3 ng/ml human OSM (Human OSM [12]): ~0.005 nM
- IC50 (read off the curve); MCP-1 release from HFLS-RA cells stimulated with 3 ng/ml human OSM (Human OSM [13]): ~0.1 nM
- IC50 (read off the curve); MCP-1 release from normal human lung fibroblasts stimulated with 3 ng/ml OSM (Human OSM [14]): ~0.01 µg/mL
- IC50 (read off the curve); MCP-1 release from IPF human lung fibroblasts stimulated with 3 ng/ml OSM (Human OSM [15]): ~0.03 µg/mL
- IC50 (read off the curve); IL-6 release from normal human lung fibroblasts stimulated with 3 ng/ml OSM (Human OSM [16]): ~0.006 µg/mL
- IC50 (read off the curve); IL-6 release from IPF human lung fibroblasts stimulated with 3 ng/ml OSM (Human OSM [17]): ~0.01 µg/mL
- Kd (Human OSM [18]): 0.136 nM
- koff (Human OSM [18]): 9.65e-05 s⁻¹
- kon (Human OSM [18]): 709000 M⁻¹ s⁻¹
- Kd (Cynomolgus OSM [19]): 0.199 nM
- koff (Cynomolgus OSM [19]): 8.39e-05 s⁻¹
- kon (Cynomolgus OSM [19]): 423000 M⁻¹ s⁻¹
- Kd (Human OSM [20]): 0.437 nM
- koff (Human OSM [20]): 0.000158 s⁻¹
- kon (Human OSM [20]): 361000 M⁻¹ s⁻¹
- Kd (Cynomolgus OSM [21]): 0.31 nM
- koff (Cynomolgus OSM [21]): 0.000109 s⁻¹
- kon (Cynomolgus OSM [21]): 352000 M⁻¹ s⁻¹
- fold increase in potency compared with 15E10h [22]: ~12 fold
- IC50 [23]: 0.0062 µg/mL and 0.041 nM
B1: Humanised 10G8 H0(IGHV3-23)L1 (antibody, human IgG1, kappa, V domains shown)
VH: EVQLVESGGGLVQPGGSLRLSCAASGFTFSSYAMSWVRQAPGKGLEWVATISDGGSFTYYLDNVRGRFTISRDNAKNSLYLQMNSLRAEDTAVYYCARDVGHTTFWYFDVWGRGTLVTVSS
VL: DIVMTQSPDSLAVSLGERATINCRASKSVSAAGYNFMHWYQQKPGQPPKVLIYYASNLESGVPDRFSGSGSGTDFTLTISSLQAEDVAVYYCLHSREFPFTFGGGTKVEIKR
notes: IgG1 kappa; also called H0(huCDRH1)L1; H0 (CDRH1 IGHV3_23) L1
